Assay results from US7414113B2, “Antibody that specifically binds to Candida kefyr Cytosine deaminase” (Onyx Pharmaceuticals, Inc., priority 2002, dated 2008).
Where a chain is given by its changes, count along the chain named. Names and notes keep the numbering of the source. “Also recorded” adds a separate entry of the source.

What was measured:
[1] = reference 16, cited from earlier work
[2] = cited from earlier work
[3] = tested on: HEK 293 cells; assay: Expression of CD constructs, anti-FLAG Western blot of cell lysate; assay type: cell-based, Human; settings: transiently transfected HEK 293 cells
Source text: Human embryonic kidney cells (HEK 293 cells) were transiently transfected with one of these constructs: CK-CD-FLAG, CK-CD, E-CD-FLAG, E-CD or vector alone (pCMV-tag4C). […] Cells co-transfected with a construct and a GFP containing plasmid indicated approximately equivalent levels of transfection.
The experimental details are as follows: 293 cells in 10 cm dishes were transfected with 10 or 15 ÿg of CD constructs using FuGene® 6 (ROCHE™) at a DNA/FuGene® ratio of 1:3. No carrier DNA was used. Cell lysates were collected in 1 ml of lysis buffer (20 mM Tris-Cl, pH8, 150 mM NaCl, 1% Triton X-100) after 48 hours by three freeze/thaw cycles using dry ice for 10 minutes and room temperature for 10 minutes.
30 μl of cell lysate was separated by 12% SDS-PAGE, transferred to membrane and then Western blotted with anti-flag monoclonal antibody at a dilution of 1:5000 (SIGMA™). The membranes were incubated with HRP conjugated goat-anti-mouse secondary antibody (1:10000, AMERSHAM™) and the signal visualized with an ECL system (AMERSHAM™). […] Similar results were obtained (not shown) when the cells were transfected with 2 μg of each DNA construct. Experiments are planned to test a humanized C. kefyr gene and it is expected that the humanized gene will improve the expression levels.
Because the bacterial protein was more strongly expressed than the yeast protein, an attempt was made to compare the levels for the amount of expression of the two clones. In a second Western blot, 30 μl of CK-CD-FLAG was compared against increasing amounts of E-CD-FLAG. […] In the following experiments, this ratio of cell lysates is used. The presence of a fainter band at about 38 KD may indicate that some portion of the CK-CD protein dimerizes.

[4] = 5FC to 5FU conversion assay at different temperatures (14C, TLC); assay type: biochemical; settings: for 5FC to 5FU conversion activity: cell lysate, 2 hour assay, FIG. 10
Method: (§1) The plate was then dried and visualized by autoradiography.
In the next experiment, we tested the activity of each enzyme against 5FC. The experiment was performed as described above, but using 5FC in place of cytosine. Further, this experiment was combined with a temperature optimization study and was performed at 4 different temperatures. […] Further, a variant with increased stability can be isolated by screening yeast grown at 37° C., as described in the Examples below.

[5] = tested on: transfected cells
Method: Cytotoxicity assay—transfected cells were seeded at a density of 1×10^3 cells/well in a 96-well microtiterplate containing 100 μl of culture medium. A set of sterile stock dilutions of the 10 mg/ml 5FC solution were prepared. One day later, increasing concentrations of 5FC was added to the wells, and a control well without the prodrug was included. After 5-7 days, the cells were washed with fresh medium and cytotoxicity was assessed by trypan blue exclusion, using a hemocytometer to quantify the results.

[6] = cell lysate, 37° C., 16 hour assay, FIG. 9; listed as C. kefyr CD protein
Method: The reaction mixtures were loaded onto a TLC plate (LK5DF SILICA GEL, Cat. No. 4856-821, WHATMAN™) and resolved with 1-butanol:H2O (85:15) for 3 hours. The plate was then dried and visualized by autoradiography.
Cell lysates were assayed for cytosine to uracil conversion at 37° C. in a 16 hour assay.

[7] = Activity of CD variants (conversion of 5FC to 5FU); assay type: biochemical; settings: mutant tested, versus protein of SEQ ID NO: 2
Source text: “Fragments” refers to those polypeptides (or nucleic acid sequences encoding such polypeptides) retaining antigenicity, a structural domain, or an enzymatic activity of the full-length protein. The “enzymatic activity” of the CD protein is herein defined to be the conversion of 5FC to 5FU.
as §1
The specific variants listed in table 2 are synthesized by site specific mutagenesis of SEQ ID NO: 1 or SEQ ID NO: 3. […] Further, changes within the cytidine and deoxycytidylate deaminase zinc-binding region (grey box) are also expected to be less well tolerated than changes outside this region. These residues involve a change in charge as compared with the closest homolog and are in the binding region. Changes in these residues are expected to change function. Active variants are likely to be those that involve conservative changes in those residues not conserved in the 2 yeasts, particularly those outside the binding region.
Variants are expressed in E. coli and screened for activity using the assay described in example 3, or any suitable assay. Alternatively, random mutagenesis is performed and the products are similarly screened. In this manner, it will be possible to isolate variants with improved temperature stability at 37° C. and mutants with even better activity than that described herein.

B1: S. cerevisiae FCY1: Wild type Saccharomyces cerevisiae CD protein, 158 amino acids (protein)
chain: MVTGGMASKWDQKGMDIAYEEAALGYKEGGVPIGGCLINNKDGSVLGRGHNMRFQKGSATLHGEISTLENCGRLEGKVYKDTTLYTTLSPCDMCTGAIIMYGIPRCVVGENVNFKSKGEKYLQTRGHEVVVVDDERCKKIMKQFIDERPQDWFEDIGE
- Activity % 5FU/5FC by 0.2 μg CD in 2 h [1]: ^1677.9 ± 6.2%
- Km [1]: 0.8 mM
- Vmax [1]: ^1668.0 ± 12.0 μM/min/μg enzyme
- T½ ([2]; measured, reference 16 (value in brackets)): (^161) HR
- measured T1/2 ([2]; thermal instability, reference 16): 1 h

B2: E-CD-FLAG: E. coli cytosine deaminase with FLAG tag (protein, UniProt P25524 2-427, looked up)
Cytosine deaminase: SNNALQTIINARLPGEEGLWQIHLQDGKISAIDAQSGVMPITENSLDAEQGLVIPPFVEPHIHLDTTQTAGQPNWNQSGTLFEGIERWAERKALLTHDDVKQRAWQTLKWQIANGIQHVRTHVDVSDATLTALKAMLEVKQEVAPWIDLQIVAFPQEGILSYPNGEALLEEALRLGADVVGAIPHFEFTREYGVESLHKTFALAQKYDRLIDVHCDEIDDEQSRFVETVAALAHHEGMGARVTASHTTAMHSYNGAYTSRLFRLLKMSGINFVANPLVNIHLQGRFDTYPKRRGITRVKEMLESGINVCFGHDDVFDPWYPLGTANMLQVLHMGLHVCQLMGYGQINDGLNLITHHSARTLNLQDYGIAAGNSANLIILPAENGFDALRRQVPVRYSVRGGKVIASTQPAQTTVYLEQPEAIDYKR
modifications: FLAG tag
- expression level [3]: much more strongly expressed than the yeast protein
- expression level ([3]; listed as E. coli CD-FLAG): expressed much more efficiently than Candida kefyr CD-FLAG

B3: E-CD: E. coli (bacterial) cytosine deaminase, 427 amino acids (protein, UniProt P25524 2-427, looked up)
Cytosine deaminase: B2 Cytosine deaminase
- Activity % 5FU/5FC by 0.2 μg CD in 2 h [1]: ^1616.0 ± 0.8%
- Km [1]: 17.9 mM
- Vmax [1]: ^1611.7 ± 3.8 μM/min/μg enzyme
- 5FU produced ([4]; 16 hours of reaction (not shown)): as much or more 5FU than the yeast protein

B4: CK-CD: Wild type Candida kefyr cytosine deaminase protein, 152 amino acids, SEQ ID NO: 2 (protein)
chain: MAEWDQKGMDKAYEEAAIGYKEGGVPIGGCLIDNLTGEILGSGHNMRFQKGSPTLHGETSTLENAGRLKGSVYKHCTMYTTLSPCDMCTGAILLYGIGRVVIGENVNFKSPGEEYLTSRGVELKVVDDKRCIDIMKEFIEKRPEDWYEDIGE
- increased cytotoxicity and bystander effect per unit dose of 5FC compared with the bacteria [5]: up to 10 fold
- expression level [3]: significantly lower expression levels than E. coli CD
- cytosine to uracil conversion activity [6]: far less active against cytosine than was the E. coli CD protein
- substrate preference, 5FC versus cytosine [4]: 5FC is a better substrate for C. kefyr CD than is the natural substrate, cytosine
- Activity % 5FU/5FC ([4]; by 45 ul cell extract, 2 h): ~50% by 45 ul
- 5FC to 5FU conversion activity [4]: much more active than CK-CD-FLAG; also recorded: more active against 5FC than the bacterial protein; also recorded: more active against 5FC than is the E. coli CD at 2 hours
- 5FC to 5FU conversion activity ([4]; listed as C. kefyr CD): much higher in converting 5FC to 5FU
- 5FC to 5FU conversion activity ([4]; listed as C. kefyr protein): sufficiently active at 37 °C

B5: CK-CD-FLAG: Candida kefyr CD with FLAG tag, with the D33E variation (protein)
chain: B4 chain with D33E
modifications: C-terminal FLAG tag
notes: Candida kefyr CD with FLAG tag, with the D33E variation
- Activity [7]: Mutant tested and has less activity
- expression level [3]: about ten-fold less well expressed than the E-CD-FLAG
- 5FC to 5FU conversion activity [4]: more active against 5FC than the bacterial protein

B6: CD-FUR1 fusion protein: Fusion of Candida kefyr CD and uracil phosphoribosyltransferase (FUR1) (protein)
chain: MAEWDQKGMDKAYEEAAIGYKEGGVPIGGCLIDNLTGEILGSGHNMRFQKGSPTLHGETSTLENAGRLKGSVYKHCTMYTTLSPCDMCTGAILLYGIGRVVIGENVNFKSPGEEYLTSRGVELKVVDDKRCIDIMKEFIEKRPEDWYEDIGEASEPFKNVYLLPQTNQLLGLYTIIRNKNTTRPDFIFYSDRIIRLLVEEGLNHLPVQKQIVETDTNENFEGVSFMGKICGVSIVRAGESMEQGLRDCCRSVRIGKILIQRDEETALPKLFYEKLPEDISERYVFLLDPMLATGGSAIMATEVLIKRGVKPERIYFLNLICSKEGIEKYHAAFPEVRIVTGALDRGLDENKYLVPGLGDFGDRYYCV
- expected activity in cytotoxicity assay [5]: increased activity
